# Reference: patent US20110300138A1 (published 2011)
# Read-outs that look alike come from different tables or passages of the source.
# What was measured:
# TSHR260-AP (human) [1] = experiment: TSHR260-AP bridge ELISA (full length TSHR on wells, TSHR260-AP in solution); IgG 1 µg/mL diluted in HBD serum
# TSHR260-AP (human) [2] = experiment: TSHR260-AP bridge ELISA (full length TSHR on wells, TSHR260-AP in solution); IgG 250 µg/mL diluted in assay buffer
# [3] = biological target: TSHR260-alkaline phosphatase (TSHR260-AP) (human) (UniProt P05187); experiment: TSHR260-AP bridge ELISA, full length TSHR on wells; 0.5 µg/mL, diluted in assay buffer
# TSHR260-AP (human) [4] = experiment: TSHR260-AP bridge ELISA (full length TSHR on wells, TSHR260-AP in solution); IgG 0.1 µg/mL diluted in HBD serum
# [5] = biological target: TSHR260-alkaline phosphatase (TSHR260-AP) (human) (UniProt P05187); experiment: TSHR260-AP bridge ELISA, full length TSHR on wells; 1 µg/mL, diluted in assay buffer
# [6] = biological target: TSHR260-alkaline phosphatase (TSHR260-AP) (human) (UniProt P05187); experiment: TSHR260-AP bridge ELISA, full length TSHR on wells; 250 µg/mL, diluted in assay buffer
# [7] = biological target: TSHR260-alkaline phosphatase (TSHR260-AP) (human) (UniProt P05187); experiment: TSHR260-AP bridge ELISA, full length TSHR on wells; 250 µg/mL, diluted in HBD
# TSHR260-AP (human) [8] = experiment: TSHR260-AP bridge ELISA (full length TSHR on wells, TSHR260-AP in solution); IgG 10 µg/mL diluted in HBD serum
# [9] = biological target: TSHR260-alkaline phosphatase (TSHR260-AP) (human) (UniProt P05187); experiment: TSHR260-AP bridge ELISA, full length TSHR on wells; 0.1 µg/mL, diluted in assay buffer
# [10] = biological target: human TSHR (thyroid stimulating hormone receptor) expressed in transfected CHO cells (human) (UniProt P16473); experiment: cell-based or functional assay
# [11] = biological target: human TSH receptor (full length, wild type) expressed in CHO cells (human) (UniProt P16473); experiment: cell-based or functional assay
# [12] = biological target: human TSH receptor (full length, wild type) expressed on CHO cells (human) (UniProt P16473); experiment: cell-based or functional assay
# TSHR260-AP (human) [13] = experiment: TSHR260-AP bridge ELISA (full length TSHR on wells, TSHR260-AP in solution); IgG 0.05 µg/mL diluted in HBD serum
# TSHR260-AP (human) [14] = experiment: TSHR260-AP bridge ELISA (full length TSHR on wells, TSHR260-AP in solution); IgG 10 µg/mL diluted in assay buffer
# [15] = biological target: TSHR260-alkaline phosphatase (TSHR260-AP) (human) (UniProt P05187); experiment: TSHR260-AP bridge ELISA, full length TSHR on wells; 10 µg/mL, diluted in HBD
# [16] = biological target: human TSHR (thyroid stimulating hormone receptor) expressed in transfected CHO cells (human) (UniProt P16473); experiment: cell-based or functional assay; remark: listed apart in the source
# M22 IgG (antibody), sequence (VH): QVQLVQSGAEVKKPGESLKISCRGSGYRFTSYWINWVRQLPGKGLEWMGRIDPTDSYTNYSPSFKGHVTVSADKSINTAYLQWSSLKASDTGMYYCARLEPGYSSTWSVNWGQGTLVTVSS
# M22 IgG (antibody), sequence (V domain): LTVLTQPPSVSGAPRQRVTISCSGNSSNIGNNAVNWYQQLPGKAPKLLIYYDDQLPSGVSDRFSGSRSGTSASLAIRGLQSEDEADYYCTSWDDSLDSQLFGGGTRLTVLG
substance,measurement,setting,value
M22 IgG (antibody),Mean absorbance at 405 nm (absorbance at 405 nm),TSHR260-AP (human) [1],0.726
same,Mean absorbance at 405 nm (absorbance at 405 nm),TSHR260-AP (human) [2],1.01
same,Mean absorbance at 405 nm (absorbance at 405 nm),[3],0.776
same,Mean absorbance at 405 nm (absorbance at 405 nm),TSHR260-AP (human) [4],0.365
same,Mean absorbance at 405 nm (absorbance at 405 nm),[5],0.821
same,Mean absorbance at 405 nm (absorbance at 405 nm),[6],1.01
same,Mean absorbance at 405 nm (absorbance at 405 nm),[7],0.833
same,Mean absorbance at 405 nm (absorbance at 405 nm),TSHR260-AP (human) [8],0.796
same,Mean absorbance at 405 nm (absorbance at 405 nm),[9],0.653
same,Cyclic AMP concentration; 3 ng/mL M22 IgG,[10],44.4 pmol/mL
same,Cyclic AMP concentration at 0.3 ng/mL M22 IgG,[11],2.36 pmol/mL
same,Cyclic AMP concentration at 1 ng/mL M22 IgG,[11],12 pmol/mL
same,Cyclic AMP concentration at 3 ng/mL M22 IgG,[11],24.6 pmol/mL
same,Cyclic AMP concentration at 10 ng/mL M22 IgG,[11],58.9 pmol/mL
same,Cyclic AMP production concentration at 1 ng/mL M22 IgG,[11],8.1 pmol/mL
same,Cyclic AMP production concentration at 3 ng/mL M22 IgG,[11],24.3 pmol/mL
same,Cyclic AMP production concentration at 10 ng/mL M22 IgG,[11],50.3 pmol/mL
same,Cyclic AMP production concentration at 30 ng/mL M22 IgG,[11],60.9 pmol/mL
same,Cyclic AMP production concentration at 100 ng/mL M22 IgG,[11],64.6 pmol/mL
same,"Cyclic AMP stimulating activity at 1 ng/mL M22 IgG, units/L (NIBSC 90/672)",[11],0.3 units/L
same,"Cyclic AMP stimulating activity at 1 ng/mL M22 IgG, units/mg (NIBSC 90/672)",[11],300 units/mg
same,"Cyclic AMP stimulating activity at 3 ng/mL M22 IgG, units/L (NIBSC 90/672)",[11],0.8 units/L
same,"Cyclic AMP stimulating activity at 3 ng/mL M22 IgG, units/mg (NIBSC 90/672)",[11],267 units/mg
same,"Cyclic AMP stimulating activity of M22 IgG, mean units/mg (NIBSC 90/672; mean of 1, 3 and 10 ng/mL)",[11],286 units/mg
same,Cyclic AMP concentration; 3 ng/mL M22 IgG alone,[12],33.1 pmol/mL
same,Mean absorbance at 405 nm (absorbance at 405 nm),TSHR260-AP (human) [13],0.204
same,Mean absorbance at 405 nm (absorbance at 405 nm),TSHR260-AP (human) [14],0.872
same,Mean absorbance at 405 nm (absorbance at 405 nm),[15],0.796
same,Cyclic AMP concentration; 3 ng/mL M22 IgG,[16],21.3 pmol/mL
